Results on 11 molecules are retold here after patent US20150147274A1 (CANCER RESEARCH TECHNOLOGY, published 2015).

For test [1], the target named is human MET (c-Met) on cells (SKOV-3, BxPC3) (human) (UniProt P08581). Description: cell-based or functional assay.
The target of test [2] is MET928 (cMET protein derived from construct 25-928) (human) (UniProt P08581). Description: Biacore SPR, MET928-coated surface, 1:1 kinetic analysis. Background: In SPR one partner is held on a chip, and binding of the other changes the refractive index at the surface.
In test [3] the target is human MET (c-Met) on cells (SKOV-3, BxPC3) (human, UniProt P08581 25-1390). The test can be described thus: cell-based or functional assay.
The target in test [4] is T1, MET928 (cMET protein derived from construct 25-928) (human, UniProt P08581 25-928).
T1 construct: MET ectodomain, residues 1-24 are the leader; produced in Lec 8 cells; background text says the ectodomain is furin-cleaved into alpha (25-307) and beta chains; biotinylated form used in selections; also called MET928 extracellular domain; Met extracellular domain
The test can be described thus: Biacore SPR, MET-928 on chip, Fab format. As to the method: The binding characteristics of 7A2 and its derivatives were measured using a GE Healthcare Biacore biosensor.

T1 sequence (P08581 25-928): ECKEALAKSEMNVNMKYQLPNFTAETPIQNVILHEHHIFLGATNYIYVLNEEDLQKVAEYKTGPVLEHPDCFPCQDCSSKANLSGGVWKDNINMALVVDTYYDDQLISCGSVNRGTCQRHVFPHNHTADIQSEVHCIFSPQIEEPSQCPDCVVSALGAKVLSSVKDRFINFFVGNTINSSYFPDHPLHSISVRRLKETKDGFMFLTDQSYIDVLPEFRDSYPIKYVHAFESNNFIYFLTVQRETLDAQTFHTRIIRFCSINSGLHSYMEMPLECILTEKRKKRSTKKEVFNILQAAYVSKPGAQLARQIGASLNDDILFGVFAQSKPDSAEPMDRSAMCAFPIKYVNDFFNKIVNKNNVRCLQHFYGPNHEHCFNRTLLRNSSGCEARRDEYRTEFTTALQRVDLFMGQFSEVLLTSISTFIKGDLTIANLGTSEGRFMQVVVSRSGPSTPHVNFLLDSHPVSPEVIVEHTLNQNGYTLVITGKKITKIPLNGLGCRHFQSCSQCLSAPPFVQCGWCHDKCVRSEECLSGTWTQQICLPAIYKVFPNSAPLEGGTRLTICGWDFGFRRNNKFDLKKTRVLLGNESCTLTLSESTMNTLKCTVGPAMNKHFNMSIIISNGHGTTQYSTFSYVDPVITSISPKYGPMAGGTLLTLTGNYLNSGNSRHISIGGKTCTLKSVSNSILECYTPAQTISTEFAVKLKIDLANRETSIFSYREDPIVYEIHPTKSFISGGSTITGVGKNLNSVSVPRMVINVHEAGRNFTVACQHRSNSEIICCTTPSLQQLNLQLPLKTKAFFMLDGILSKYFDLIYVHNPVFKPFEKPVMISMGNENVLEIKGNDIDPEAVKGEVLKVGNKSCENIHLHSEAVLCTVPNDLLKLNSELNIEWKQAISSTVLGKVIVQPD
Chain of MET928 (cMET protein derived from construct 25-928) (human) (P08581 25-928): as above
Chain of human MET (c-Met) on cells (SKOV-3, BxPC3) (P08581 25-1390): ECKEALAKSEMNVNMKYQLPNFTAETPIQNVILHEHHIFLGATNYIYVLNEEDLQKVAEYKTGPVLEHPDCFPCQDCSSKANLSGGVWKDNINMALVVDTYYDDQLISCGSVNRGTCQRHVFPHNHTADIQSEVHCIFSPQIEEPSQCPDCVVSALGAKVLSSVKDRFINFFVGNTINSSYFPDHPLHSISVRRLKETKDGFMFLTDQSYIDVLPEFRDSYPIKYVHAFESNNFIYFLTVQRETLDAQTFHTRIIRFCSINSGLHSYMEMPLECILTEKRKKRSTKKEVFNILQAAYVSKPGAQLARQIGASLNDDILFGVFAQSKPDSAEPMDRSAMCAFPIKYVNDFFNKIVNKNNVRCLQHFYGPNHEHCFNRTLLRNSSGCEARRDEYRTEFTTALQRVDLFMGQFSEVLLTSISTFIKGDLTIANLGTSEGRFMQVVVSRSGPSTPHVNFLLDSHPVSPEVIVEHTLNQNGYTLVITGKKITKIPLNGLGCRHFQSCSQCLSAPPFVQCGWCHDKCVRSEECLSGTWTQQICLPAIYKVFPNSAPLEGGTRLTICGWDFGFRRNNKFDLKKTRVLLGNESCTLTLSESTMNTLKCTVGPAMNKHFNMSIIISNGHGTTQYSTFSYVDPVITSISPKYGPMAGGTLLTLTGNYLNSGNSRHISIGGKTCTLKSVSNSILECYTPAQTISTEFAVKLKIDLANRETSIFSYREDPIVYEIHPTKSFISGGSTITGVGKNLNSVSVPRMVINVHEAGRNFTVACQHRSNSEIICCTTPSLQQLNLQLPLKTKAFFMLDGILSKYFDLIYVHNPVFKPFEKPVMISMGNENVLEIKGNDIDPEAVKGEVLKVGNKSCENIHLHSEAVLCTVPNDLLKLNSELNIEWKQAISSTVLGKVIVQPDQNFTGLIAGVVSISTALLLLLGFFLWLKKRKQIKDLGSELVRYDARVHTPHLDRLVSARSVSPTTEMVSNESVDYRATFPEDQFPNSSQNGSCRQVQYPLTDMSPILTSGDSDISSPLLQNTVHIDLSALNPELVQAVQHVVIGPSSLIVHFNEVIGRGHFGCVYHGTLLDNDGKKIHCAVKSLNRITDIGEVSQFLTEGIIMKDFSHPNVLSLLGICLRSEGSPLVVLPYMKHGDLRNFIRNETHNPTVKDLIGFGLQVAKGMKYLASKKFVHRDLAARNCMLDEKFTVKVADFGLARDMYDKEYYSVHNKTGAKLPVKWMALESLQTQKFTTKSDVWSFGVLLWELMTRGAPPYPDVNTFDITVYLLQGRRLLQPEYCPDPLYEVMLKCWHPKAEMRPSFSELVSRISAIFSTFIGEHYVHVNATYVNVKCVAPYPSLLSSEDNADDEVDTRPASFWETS
Chain of human MET (c-Met) on cells (SKOV-3, BxPC3) (human) (P08581 25-1390): as above

Consider 5D5 Fab (His-tagged), for which, in test [1], the Fab concentration (nanomolar) giving 50% inhibition of HGF/SF-induced SKOV-3 migration, MEAN is 101 nM and the Fab concentration (nanomolar) giving 50% inhibition of HGF/SF-induced SKOV-3 migration, MEDIAN stood at 91 nM. In test [2], this molecule showed a Kd of 6.9 nM, a koff of 0.00081 s⁻¹ and a kon of 120000 M⁻¹ s⁻¹.

In the case of 5D5 scFv, in test [1], the IC50 (nM), inhibition of HGF/SF-induced migration of SKOV-3 cells, Assay 1 came to 116 nM; the IC50 (nM), inhibition of HGF/SF-induced migration of SKOV-3 cells, Assay 2 stood at 83.6 nM; the IC50 (nM), inhibition of HGF/SF-induced migration of SKOV-3 cells, Mean is 99.6 nM.

B1: 7A2 Fab (His- and FLAG-tagged, hinged format) (Fab, V domains shown)
VH: QMQLVQSGAEVKKPGAPVKVSCKVSGYTFTDYYMHWVQQAPGKGLEWMGLVDPEDGETIYAEKFQGRVTITADTSTDTAYMELSSLRSEDTAVYYCATDATTPYYGMDVWGQGTLVTVSS
VL: DIQMTQSPSSLSASVGDRVTITCQASQDISNYLNWYQQKPGRAPKVLIYDASNLETGVPSRFSGSGSGTEFTLTISNLRPDDFATYYCQQGDSFPLTFGGGTKVEIK
notes: Fab from pBIOCAM7-3F in HEK293 cells, hinged format (Leu-Glu after VH), hexahistidine and tri-FLAG tags at the C-terminus of the heavy chain
For the molecule B1, in test [3], the “IC50, inhibition of HGF/SF-induced migration of SKOV-3 cells, Assay 1” value (“IC50, inhibition … Assay 1” below) was determined as 387 nM; the “IC50, inhibition of HGF/SF-induced migration of SKOV-3 cells, Assay 2” value (“IC50, inhibition … Assay 2” below) came to 493 nM; the “IC50, inhibition of HGF/SF-induced migration of SKOV-3 cells, Assay 3” value (“IC50, inhibition … Assay 3” below) was 278 nM; the “Mean IC50, inhibition of HGF/SF-induced migration of SKOV-3 cells” value (“Mean IC50, inhibition” below) stood at 386 nM. In test [4], this molecule came in with a Kd of 77.3 nM, a koff of 0.0882 s⁻¹ and a kon of 1.14e+06 M⁻¹ s⁻¹.

B2: 110_A10 Fab (His/tri-FLAG tagged, hinged) (Fab, V domains shown)
VH: QMQLVQSGAEVKKPGAPVKVSCKVSGYTFTDYYMHWVQQAPGKGLEWMGLVDPEDGETIYAEKFQGRVTITADTSTDTAYMELSSLRSEDTAVYYCATDATTPYWGMQTWGQGTLVTVSS
VL: DIQMTQSPSSLSASVGDRVTITCQASQDISNYLNWYQQKPGRAPKVLIYDASNLETGVPSRFSGSGSGTEFTLTISNLRPDDFATYYCQQGDSFPLTFGGGTKVEIK
notes: Fab from pBIOCAM7-3F, hinged, hexahistidine and tri-FLAG tags on the heavy chain
In test [4], B2 yielded a Kd of 2.23 nM, a koff of 0.00168 s⁻¹ and an on-rate (kon) of 756000 M⁻¹ s⁻¹.

B3: 110_A12 Fab (His/tri-FLAG tagged, hinged) (Fab, V domains shown)
VH: QMQLVQSGAEVKKPGAPVKVSCKVSGYTFTDYYMHWVQQAPGKGLEWMGLVDPEDGETIYAEKFQGRVTITADTSTDTAYMELSSLRSEDTAVYYCATDATTPYWFPREWGQGTLVTVSS
VL: DIQMTQSPSSLSASVGDRVTITCQASQDISNYLNWYQQKPGRAPKVLIYDASNLETGVPSRFSGSGSGTEFTLTISNLRPDDFATYYCQQGDSFPLTFGGGTKVEIK
notes: as for B2
For the molecule B3, in test [4], the affinity, expressed as Kd, was 2.79 nM; the dissociation rate constant (koff) came out at 0.00161 s⁻¹; the kon was 577000 M⁻¹ s⁻¹.

B4: 107_A08 Fab (His/tri-FLAG tagged, hinged) (Fab, V domains shown)
VH: QMQLVQSGAEVKKPGAPVKVSCKVSGYTFTDYYMHWVQQAPGKGLEWMGLVDPEDGETIYAEKFQGRVTITADTSTDTAYMELSSLRSEDTAVYYCATDATTPYWGMVEWGQGTLVTVSS
VL: DIQMTQSPSSLSASVGDRVTITCQASQDISNYLNWYQQKPGRAPKVLIYDASNLETGVPSRFSGSGSGTEFTLTISNLRPDDFATYYCQQGDSFPLTFGGGTKVEIK
notes: as for B2
As to B4, in test [3], the “IC50, inhibition … Assay 1” value is 10.5 nM and the “Mean IC50, inhibition” value was 10.5 nM. In test [4], this molecule had a Kd of 2.29 nM, a koff of 0.00192 s⁻¹ and a kon of 838000 M⁻¹ s⁻¹.

B5: 111_D06 Fab (His/tri-FLAG tagged, hinged) (Fab, V domains shown)
VH: QMQLVQSGAEVKKPGAPVKVSCKVSGYTFTDYYMHWVQQAPGKGLEWMGLVDPEDGETIYAEKFQGRVTITADTSTDTAYMELSSLRSEDTAVYYCATDATTPYWGMWQWGQGTLVTVSS
VL: DIQMTQSPSSLSASVGDRVTITCQASQDISNYLNWYQQKPGRAPKVLIYDASNLETGVPSRFSGSGSGTEFTLTISNLRPDDFATYYCQQGDSFPLTFGGGTKVEIK
notes: as for B2
In test [4], B5 had a Kd of 2.29 nM, a koff of 0.00197 s⁻¹ and an association rate constant (kon) of 860000 M⁻¹ s⁻¹.

B6: 107_A07 Fab (His/tri-FLAG tagged, hinged) (Fab, V domains shown)
VH: QMQLVQSGAEVKKPGAPVKVSCKVSGYTFTDYYMHWVQQAPGKGLEWMGLVDPEDGETIYAEKFQGRVTITADTSTDTAYMELSSLRSEDTAVYYCATDATTPYWGMMWWGQGTLVTVSS
VL: DIQMTQSPSSLSASVGDRVTITCQASQDISNYLNWYQQKPGRAPKVLIYDASNLETGVPSRFSGSGSGTEFTLTISNLRPDDFATYYCQQGDSFPLTFGGGTKVEIK
notes: Fab from pBIOCAM7-3F in HEK293 cells, hinged format (Leu-Glu after VH), hexahistidine and tri-FLAG tags on the heavy chain
Consider B6, for which, in test [3], the “IC50, inhibition … Assay 1” value turned out to be 9.7 nM; the “IC50, inhibition … Assay 2” value is 9.2 nM; the “IC50, inhibition … Assay 3” value is 3.1 nM; the “Mean IC50, inhibition” value amounted to 7.4 nM. Further, in test [4], the Kd worked out at 1.23 nM, the koff was found to be 0.00116 s⁻¹ and the kon is 949000 M⁻¹ s⁻¹.

B7: 110_A06 Fab (His/tri-FLAG tagged, hinged) (Fab, V domains shown)
VH: QMQLVQSGAEVKKPGAPVKVSCKVSGYTFTDYYMHWVQQAPGKGLEWMGLVDPEDGETIYAEKFQGRVTITADTSTDTAYMELSSLRSEDTAVYYCATDATTPYWGMQLWGQGTLVTVSS
VL: DIQMTQSPSSLSASVGDRVTITCQASQDISNYLNWYQQKPGRAPKVLIYDASNLETGVPSRFSGSGSGTEFTLTISNLRPDDFATYYCQQGDSFPLTFGGGTKVEIK
notes: as for B2
In test [4], B7 yielded a Kd of 1.9 nM, a koff of 0.00128 s⁻¹ and a kon of 677000 M⁻¹ s⁻¹.

B8: 110_A01 Fab (His/tri-FLAG tagged, hinged) (Fab, V domains shown)
VH: QMQLVQSGAEVKKPGAPVKVSCKVSGYTFTDYYMHWVQQAPGKGLEWMGLVDPEDGETIYAEKFQGRVTITADTSTDTAYMELSSLRSEDTAVYYCATDATTPYWFPYLWGQGTLVTVSS
VL: DIQMTQSPSSLSASVGDRVTITCQASQDISNYLNWYQQKPGRAPKVLIYDASNLETGVPSRFSGSGSGTEFTLTISNLRPDDFATYYCQQGDSFPLTFGGGTKVEIK
notes: as for B2
With B8, in test [3], the “IC50, inhibition … Assay 1” value is 9.6 nM; the “IC50, inhibition … Assay 2” value came out at 27 nM; the “IC50, inhibition … Assay 3” value was 2.6 nM; the “Mean IC50, inhibition” value amounted to 13.1 nM. In test [4], this molecule had a Kd of 1.23 nM, a koff of 0.00137 s⁻¹ and a kon of 1.12e+06 M⁻¹ s⁻¹.

B9: 107_A01 Fab (His/tri-FLAG tagged, hinged) (Fab, V domains shown)
VH: QMQLVQSGAEVKKPGAPVKVSCKVSGYTFTDYYMHWVQQAPGKGLEWMGLVDPEDGETIYAEKFQGRVTITADTSTDTAYMELSSLRSEDTAVYYCATDATTPYWGMVSWGQGTLVTVSS
VL: DIQMTQSPSSLSASVGDRVTITCQASQDISNYLNWYQQKPGRAPKVLIYDASNLETGVPSRFSGSGSGTEFTLTISNLRPDDFATYYCQQGDSFPLTFGGGTKVEIK
notes: as for B2
For the molecule B9, in test [3], the “IC50, inhibition … Assay 1” value is 9.7 nM; the “IC50, inhibition … Assay 3” value turned out to be 11.4 nM; the “Mean IC50, inhibition” value worked out at 10.6 nM. In test [4], binding was characterised by a dissociation constant (Kd) of 1.43 nM, the off-rate (koff) came out at 0.00123 s⁻¹ and the on-rate (kon) turned out to be 863000 M⁻¹ s⁻¹.

The Kd is the equilibrium constant for the complex coming apart. One may read the koff as a measure of how fast the partners let go of each other. Low readings indicate slow dissociation, high ones fast dissociation. By kon is commonly meant a measure of how fast the partners come together.
